For orientation: koff means a measure of how fast the partners let go of each other. The kon is the rate constant with which the complex forms.

Holding throughout (assay): SPR (BIACORE T200), 37 C, pH5.8, avidity condition (capture 185 RU), 1:1 fit; pH 5.8
Assay [1] concerns the target T1, Cynomolgus monkey latent myostatin (cynomolgus monkey, UniProt Q95J86 25-266; Q95J86 267-375).
T1 construct: signal 1-24; also called Cyno latent myostatin
T1 sequence 1: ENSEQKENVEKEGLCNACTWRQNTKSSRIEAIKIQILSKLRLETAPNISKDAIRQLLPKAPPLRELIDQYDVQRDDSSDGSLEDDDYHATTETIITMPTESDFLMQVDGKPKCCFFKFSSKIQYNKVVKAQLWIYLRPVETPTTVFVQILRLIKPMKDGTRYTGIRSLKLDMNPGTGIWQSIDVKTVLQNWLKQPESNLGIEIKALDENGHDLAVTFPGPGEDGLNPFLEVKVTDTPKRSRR
T1 sequence 2: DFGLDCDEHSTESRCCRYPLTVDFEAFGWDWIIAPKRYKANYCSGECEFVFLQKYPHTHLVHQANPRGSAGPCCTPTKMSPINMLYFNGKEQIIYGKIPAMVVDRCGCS
The protocol:
(§1) The kinetic parameters of anti-latent myostatin antibodies against human, cynomolgus monkey (cyno), and mouse latent myostatin were assessed at 37° C. at pH7.4 using a BIACORE® T200 instrument (GE Healthcare). ProA/G (Pierce) was immobilized onto all flow cells of a CM4 chip using amine coupling kit (GE Healthcare). Anti-latent myostatin antibody and analytes were prepared in ACES pH7.4 (20 mM ACES, 150 mM NaCl, 1.2 mM CaCl₂), 0.05% TWEEN® 20, 0.005% NaN₃). […] Then human, cyno, or mouse latent myostatin was injected at 3.125 to 50 nM prepared by two-fold serial dilution, followed by dissociation. The sensor surface was regenerated with 25 mM NaOH. Kinetic parameters were determined by processing and fitting the data to a 1:1 binding model using BIACORE® T200 Evaluation software, version 2.0 (GE Healthcare).
(§2) All experimental settings were the same as in Example 7, except that measurements were also performed in ACES pH5.8 buffer in addition to ACES pH7.4 condition. Some antibodies were only measured against human latent myostatin. Antibody capture level was aimed at 185 RU and 18.5 RU, for avidity and affinity assay, respectively. Kinetic parameters were determined using 1:1 Binding fitting using BIACORE® T200 Evaluation software, version 2.0 (GE Healthcare).

In a further assay the target is T2, Mouse latent myostatin (mouse, UniProt O08689 26-267; O08689 268-376).
T2 construct: signal 1-24
T2 sequence 1: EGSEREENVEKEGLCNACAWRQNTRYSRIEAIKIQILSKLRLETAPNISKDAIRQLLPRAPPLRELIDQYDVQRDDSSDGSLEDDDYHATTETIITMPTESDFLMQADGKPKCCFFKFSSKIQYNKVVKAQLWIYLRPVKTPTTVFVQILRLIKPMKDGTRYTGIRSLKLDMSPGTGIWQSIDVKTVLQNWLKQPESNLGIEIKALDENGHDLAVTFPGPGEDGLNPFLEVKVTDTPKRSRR
T2 sequence 2: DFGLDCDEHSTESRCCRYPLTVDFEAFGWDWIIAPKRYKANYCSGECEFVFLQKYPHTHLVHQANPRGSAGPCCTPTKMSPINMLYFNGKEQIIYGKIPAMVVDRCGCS
The protocol:
as §1, §2

The target of the next assay is T3, Human latent myostatin (human, UniProt O14793 25-266; O14793 267-375).
T3 construct: Biotinylated in the ELISAs; also called human myostatin latent form
T3 sequence 1: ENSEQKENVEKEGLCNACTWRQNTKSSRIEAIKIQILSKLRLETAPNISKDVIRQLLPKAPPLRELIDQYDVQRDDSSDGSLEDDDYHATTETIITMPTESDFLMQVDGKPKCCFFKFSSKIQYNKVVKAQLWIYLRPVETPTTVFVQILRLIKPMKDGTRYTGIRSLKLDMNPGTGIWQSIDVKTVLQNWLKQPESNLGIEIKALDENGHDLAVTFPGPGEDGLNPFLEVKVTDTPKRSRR
T3 sequence 2: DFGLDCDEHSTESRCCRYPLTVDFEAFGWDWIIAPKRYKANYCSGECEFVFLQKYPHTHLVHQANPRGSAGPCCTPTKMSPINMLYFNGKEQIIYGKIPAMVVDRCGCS
As to the method:
as §1, §2

B1: MS_M103205H000-SG1/M103202LO00-SK1 (antibody, human IgG1, kappa, V domains shown)
VH: QVTLKESGPVLVKPTETLTLTCTVSGIDLSSYDISWVRQAPGKGLEWVGIISYAGSTYYASWAKGRLTISKDTSKNQVVLTMTNMDPVDTATYYCARGVPAYSTGGDLWGQGTLVTVSS
VL: DIVMTQSPATLSLSPGERATLSCQSSQSVYDNNWLSWFQQKPGQPPKLLIYWASTLASGVPSRFSGSGSGTDFTLTISSLQPEDAATYYCAGGYGGGLYAFGQGTKVEIKR
notes: Humanized MST1032, not pH-dependent; also called MS1032LO00-SG1; Ab001
Consider B1, for which, in assay [1], the Kd was determined as 8.83 pM, the dissociation rate constant (koff) stood at 1.58e-05 s⁻¹ and the kon was 1.79e+06 M⁻¹ s⁻¹. In addition, in the assay with Mouse latent myostatin, the Kd came out at 8.7 pM, the off-rate constant (koff) worked out at 2.02e-05 s⁻¹ and the kon turned out to be 2.32e+06 M⁻¹ s⁻¹. In the assay with Human latent myostatin, this molecule registered a Kd of 79.7 pM, an off-rate (koff) of 0.000128 s⁻¹ and an on-rate constant (kon) of 1.6e+06 M⁻¹ s⁻¹.

For the origin of these results see US20200317768A1 (published 2020).
